Experimental data reported in publication PMC4664405, “Mapping Soluble Guanylyl Cyclase and Protein Disulfide Isomerase Regions of Interaction” (PLoS ONE, 2015).

B1: soluble guanylyl cyclase (sGC) β subunit, of the purified reduced sGC (enzyme, human, UniProt Q02153 1-619, looked up)
chain: MYGFVNHALELLVIRNYGPEVWEDIKKEAQLDEEGQFLVRIIYDDSKTYDLVAAASKVLNLNAGEILQMFGKMFFVFCQESGYDTILRVLGSNVREFLQNLDALHDHLATIYPGMRAPSFRCTDAEKGKGLILHYYSEREGLQDIVIGIIKTVAQQIHGTEIDMKVIQQRNEECDHTQFLIEEKESKEEDFYEDLDRFEENGTQESRISPYTFCKAFPFHIIFDRDLVVTQCGNAIYRVLPQLQPGNCSLLSVFSLVRPHIDISFHGILSHINTVFVLRSKEGLLDVEKLECEDELTGTEISCLRLKGQMIYLPEADSILFLCSPSVMNLDDLTRRGLYLSDIPLHDATRDLVLLGEQFREEYKLTQELEILTDRLQLTLRALEDEKKKTDTLLYSVLPPSVANELRHKRPVPAKRYDNVTILFSGIVGFNAFCSKHASGEGAMKIVNLLNDLYTRFDTLTDSRKNPFVYKVETVGDKYMTVSGLPEPCIHHARSICHLALDMMEIAGQVQVDGESVQITIGIHTGEVVTGVIGQRMPRYCLFGNTVNLTSRTETTGEKGKINVSEYTYRCLMSPENSDPQFHLEHRGPVSMKGKKEPMQVWFLSRKNTGTEETKQDDD
notes: soluble guanylyl cyclase β subunit, human GCYB1; called full-length reduced sGC in the discussion; cross-linked lysines K127, K187, K559, K615; Bought as the α/β heterodimer and reduced before incubation with PDI; also called GCYB1; source: bought: Axxora

How the values were obtained:
[1] = target: T1, soluble guanylyl cyclase (sGC) α subunit, of the purified reduced sGC (human, UniProt Q02108 1-690); assay: cross-linking; reduced sGC and oxidized PDI incubated, 50 molar excess of BS3 for 30 minutes at room temperature (22°C) in the dark, alkylated with 40 mM iodoacetamide, non-reducing 7.5% TGX gel, bands digested with trypsin, RPLC-MS/MS, MassMatrix search; settings: both partners purified
T1 construct: soluble guanylyl cyclase α subunit, human GCYA3; called full-length reduced sGC in the discussion; cross-linked lysines K5, K606, K672, K673, K685; Bought as the α/β heterodimer and reduced before incubation with PDI; also called GCYA3; source: bought: Axxora
T1 sequence (looked up): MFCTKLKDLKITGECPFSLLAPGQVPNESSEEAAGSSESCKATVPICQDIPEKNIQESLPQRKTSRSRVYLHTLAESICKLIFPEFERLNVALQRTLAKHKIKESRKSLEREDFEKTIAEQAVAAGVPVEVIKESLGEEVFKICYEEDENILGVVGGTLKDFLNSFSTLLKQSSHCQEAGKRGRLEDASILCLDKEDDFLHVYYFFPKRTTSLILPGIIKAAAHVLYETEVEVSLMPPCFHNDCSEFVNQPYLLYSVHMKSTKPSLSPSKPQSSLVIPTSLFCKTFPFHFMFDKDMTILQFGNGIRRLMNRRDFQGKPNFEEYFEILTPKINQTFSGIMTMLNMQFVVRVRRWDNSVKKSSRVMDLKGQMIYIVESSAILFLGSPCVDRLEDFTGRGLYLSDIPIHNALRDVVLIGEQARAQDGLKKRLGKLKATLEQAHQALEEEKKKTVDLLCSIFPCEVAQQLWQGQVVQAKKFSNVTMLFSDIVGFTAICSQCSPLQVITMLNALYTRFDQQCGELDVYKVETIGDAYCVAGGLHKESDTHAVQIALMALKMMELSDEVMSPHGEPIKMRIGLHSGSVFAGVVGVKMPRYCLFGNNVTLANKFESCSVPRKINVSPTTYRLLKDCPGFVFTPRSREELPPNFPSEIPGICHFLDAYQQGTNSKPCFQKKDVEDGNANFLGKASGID

[2] = target: B1; assay: as above; settings: both partners purified

B1: binds [1].

B2: protein disulfide isomerase (PDI), oxidized, purified (enzyme)
chain: not shown
modifications: oxidized: each active site Cys-x-x-Cys forms a disulfide bond
notes: protein disulfide isomerase, human P4HB; called full-length oxidized PDI in the discussion; cross-linked lysines K370 and K409; also called oxidized PDI; oxPDI; source: PDI in pTRC-HisA, purified as described previously [11]
B2: binds [2]; binds [1].
